PMC11470758

T1: MBP-GlcR (MGlcR) (Paracoccus denitrificans) (UniProt A1BAC0)
T1 sequence: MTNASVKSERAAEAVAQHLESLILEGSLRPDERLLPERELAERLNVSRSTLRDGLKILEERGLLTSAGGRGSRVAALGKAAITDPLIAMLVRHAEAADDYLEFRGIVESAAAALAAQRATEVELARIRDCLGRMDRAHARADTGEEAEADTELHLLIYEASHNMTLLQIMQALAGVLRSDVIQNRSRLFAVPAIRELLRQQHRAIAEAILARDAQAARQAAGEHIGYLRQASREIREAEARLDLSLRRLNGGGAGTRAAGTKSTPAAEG

T2: MBP-GlcR (MGlcR) (Paracoccus denitrificans, UniProt A1BAC0 1-269)
T2 sequence: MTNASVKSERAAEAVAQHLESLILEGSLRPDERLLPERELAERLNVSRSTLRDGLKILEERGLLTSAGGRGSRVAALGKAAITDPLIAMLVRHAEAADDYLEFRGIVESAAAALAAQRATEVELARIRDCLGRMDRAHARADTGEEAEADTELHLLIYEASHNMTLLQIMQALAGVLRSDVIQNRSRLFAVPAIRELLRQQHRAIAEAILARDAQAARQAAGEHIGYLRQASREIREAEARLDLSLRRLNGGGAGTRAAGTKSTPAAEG


What was measured:
[1] = target: T1, MBP-GlcR (MGlcR) (Paracoccus denitrificans); experiment: EMSA; settings: EMSA buffer, salt, pH and temperature not given in the material
MBP-GlcR (MGlcR) = target: T2, MBP-GlcR (MGlcR); experiment: EMSA

| Molecule | binding [1] | binding result (MBP-GlcR (MGlcR)) |
| --- | --- | --- |
| CTTTCTAGATCACGCACGCGCCAGGATGCCCGCATCGGGCCGGGGCATGGCAATACCGGACAAGCTCTCCTCCCTTGGTCGAACGGCAGGCCCGTGTCCTGCCCTGCATTCTTGGTATAATTTTCAGACCACATTAGTCAATCGGTATTTTTCTGGACCGACACGCCCGTCCTGTGCTTACATGGCAGGGATCCGACAACCGCATGAGCGCCCATGACCAACGCATCCGTGAAATCCGAACGCGCCGCCGAGGCCGTGGCCCAGTGAGAATTCATATC (double strand) [pden4399-4400 intergenic sequence] | binds | – |
| fragment #3 (dsDNA) DNA 1: GTCCAGAAAAATACCGATTGACTAATGTGGTCTGAAAATTATACCAAGAATGCAGGGCAG DNA 2: CTGCCCTGCATTCTTGGTATAATTTTCAGACCACATTAGTCAATCGGTATTTTTCTGGAC | – | binds |
